Laboratory results taken from the supplement of paper PMC7125110.
± gives the standard error. Fewer inactive variants are shown than the library holds.

B1: glmS ribozyme (parent)
chain: AUAAAAGCGCCAGAACUACAGAAAUGUAGUUGACGAGGAGGAGGUUUAUCGAAUUUUCGGCGGAUGCCUCCAAA

Key:
Details in all cases: with glucosamine-6-phosphate
[1] = variants of: B1; assay: self-cleavage kobs at 40 uM GlcN6P; higher = faster cleavage; RNA array
Method in brief: (§1)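 Barcoded ribozyme variants, transcribed in situ by E. coli RNA polymerase on sequenced MiSeq chips, were followed via a hybridised Cy3 probe at 37 °C. Glucosamine-6-phosphate ranged from 40 μM to 10 mM in HEPES/KCl/Mg(OAc)2 buffer. kobs came from decay fits to per-tile medians, and kcat and KM from weighted Michaelis–Menten fits.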

[2] = variants of: B1; assay: self-cleavage kobs at 160 uM GlcN6P; higher = faster cleavage; RNA array
Method in brief: as §1

[3] = variants of: B1; assay: self-cleavage kobs at 2500 uM GlcN6P; higher = faster cleavage; RNA array
Method in brief: as §1

[4] = variants of: B1; assay: self-cleavage kobs at 10000 uM GlcN6P; higher = faster cleavage; RNA array
Method in brief: as §1

[5] = variants of: B1; assay: self-cleavage kobs at 640 uM GlcN6P; higher = faster cleavage; RNA array
Method in brief: as §1

Variant | self-cleavage kobs at 40 uM GlcN6P [1] [s⁻¹] | self-cleavage kobs at 160 uM GlcN6P [2] [s⁻¹] | self-cleavage kobs at 2500 uM GlcN6P [3] [s⁻¹] | self-cleavage kobs at 10000 uM GlcN6P [4] [s⁻¹] | self-cleavage kobs at 640 uM GlcN6P [5] [s⁻¹]
A12G C16U C34A A39U G60A U69G | < 1e-05 |  |  |  | 
A12G A15C G35U C71U | < 1e-05 | < 1e-05 |  |  | 
C10U G37U G43U A52G G60U | < 1e-05 |  | < 1e-05 | < 1e-05 | 
C11U G13A A14C A52C G66A | < 1e-05 |  |  | < 1e-05 | 
C11A A48C U55C C61A | < 1e-05 |  |  |  | 
C11A A12C G44C U49A | < 1e-05 | < 1e-05 | < 1e-05 | < 1e-05 | < 1e-05
A12G A15U U49A U54G | < 1e-05 |  |  |  | 
C11G G29C U31G G37A C68G | < 1e-05 |  |  |  | 
A12U G29A U56C | 0.000118 ± 2.9e-05 |  | 0.0018 ± 0.00058 |  | 0.000685 ± 0.00022
C10U C58A C68A | < 1e-05 |  |  | < 1e-05 | 
C11U G62C | < 1e-05 | < 1e-05 | < 1e-05 |  | < 1e-05
C11G G29A U49G U69G | 4.27e-05 ± 1.7e-05 |  |  |  | 
C11G G38U | < 1e-05 | < 1e-05 |  | < 1e-05 | < 1e-05
C10U G29C G35A G44U C50A U55C A64U | < 1e-05 |  |  | < 1e-05 | 
C11G U54C | < 1e-05 |  |  |  | 
C10U G13C G40A | < 1e-05 | < 1e-05 |  |  | 
A12U C68G C70G | < 1e-05 |  |  |  | 
C11G C58U | < 1e-05 | < 1e-05 |  | < 1e-05 | 
A12C G38C A42U | < 1e-05 |  |  | < 1e-05 | 
C10U C11U U56G G62U | < 1e-05 |  |  | < 1e-05 | 
A12U G41C C58A | < 1e-05 |  | < 1e-05 | < 1e-05 | 
C11G U46A | < 1e-05 | < 1e-05 | < 1e-05 | < 1e-05 | 
A12C G40A | 0.000112 ± 2.1e-05 | 0.000305 ± 8e-05 | 0.00149 ± 0.00055 | 0.00569 ± 0.0013 | 0.000633 ± 0.00023
A12C A14C C70U | < 1e-05 |  | 9.06e-05 ± 1.4e-05 | 8.48e-05 ± 1.8e-05 | 
A12U G29A A39G A53U | 0.000581 ± 0.00016 |  |  | 0.0117 ± 0.0041 | 
A12U A36G | < 1e-05 | < 1e-05 |  |  | 
